Results from the nanobody polyreactivity screen of Harvey et al. (2022).

experiment: yeast display, Sf9 membrane polyspecificity reagent, FACS + sequencing; frameworks hold sequencing errors
Summary of the method: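 Using colony PCR, genes from sorted yeast display clones were amplified, then sequenced on MiSeq at 2 × 250 and filtered by CDR length. The clones had been stained with 10% biotinylated, detergent-solubilized Sf9 membrane reagent for 1 hour at 4 °C and sorted by FACS into low and high (top ~1%) gates on anti-HA and streptavidin fluorescence. Polyreactivity labels come from the gate of origin.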

Row | Sequence | polyreactivity (PSR sort gate)
1 | QVQLVESGGGLVQAGGSLRLSCAACGSIFDYYTMGWYRQAPGKEREFVAGISDSGGSTNYADSVKGRFTISRDNAKNTVYLQINSLKPEDTAVYYCNAEYVGWFYKYDYWGQGTQVTVSS | high polyreactivity
2 | QVQLVESGGGLVQAGGSLRLSCAASGFIFSYYAMGWYRQAPGKERELVAAITSGGSTNYADSVKGRFTISRDNAKNTVYLQMNSLKPEDTAVFYCATAGSGGIGLFYSYDYWGQGTQVTVSS | low polyreactivity
3 | QVQLVESGGGLVQAGGSLRLICAASGIIFVRYVMGWYRQAPGKEMELVAAINWSGGSTYYADSVKGRFTISRDNAKYTVYLQMNSLKPEDTAVYFCCAGSARDDDYWGQGTQVTVSS | high polyreactivity
4 | QVQLVESGGGLVQAGGSLRLSCAASGSTFAIYAMGWYRQAPGKERELVAAINSGGSTNYADSVKGRFTISRDNAKNTVYLQMNSLKPEDTAVYYCNTDAWHETPVSGYSWGQGTQVTVSS | low polyreactivity
5 | PVQLVVSGGGLVQAGGSLRLSWAASGLIFRYYAMGWYRQAPGKERELVATIRGGGSTYYADSVKGRFTISRDKAKNTVTLQMNSLKPEATAVDYSAADPYSYGARGARGDYWGQGTQGTVSS | low polyreactivity
6 | QVQLVESGGGLVQAGGSLRLICAASGLIFAVYAMGWYRQAPGKERELVAGISASAASTYYADSVKGRFTISRDNAKNTVFLQMNSLNPEDTAVYYCAADFYWFWTYGTLWYGYEYWGLGTQVTVSS | high polyreactivity
7 | QVQLVESGGGLVQAGGSLGLSCAASGRTLYRYAMGWYRQARGKERELVAAIRSGGRTNYADSVKGRFTISRDNAKNTVYLQMNSLKPEDTAVYYCAAGTLRYPSTYVDWGQGTQVTVSS | high polyreactivity
8 | QVQLVESGGGLVQAGGSLRLSCPASGSIFDLYAMGWYRQAPGKERELVASIRYSGGRTYYADSVKGRFTISRDNAKNTVYLQMNSLKPEDTAVYYCNRDGGYTFIMDYWGQGNQVTVSS | low polyreactivity
9 | QVQLVESGGGLVQAGGSLRLSCAASGGIFRPYAMGWYRQSPGKEREMVAAITYNGGSTYYADSVKGRFTISRDNAKNTVYLQMNSLKPEDTGVYYCAARARSSRTYHDDYWGQGTQVTVSS | high polyreactivity
10 | QVQLVESGGGLVQAGGSLRLSCAASGRIFFYNAMGWSRQAPGKERELVAAISARGDRTYYADSVKGRFTISRDNAKNTVYLQMNSLKPEDTAVYYCAADYYNYRYDYWGQGTQVTVSS | high polyreactivity
11 | QVQLVESGGGLVQAGGSLRLSCAASGSTFVRYAMGWYRQAPGKERELVASISSSGSTYYADSVKGRFTISRDNAKNTVYLQMNSLKPEDTAVYYCAKQYGGRYGYWGQGTQVTLSS | low polyreactivity
12 | QVQLVESGGALVQAGGTLRLSGAASGIIFDGYAMGWYRQAPGKEREFVAVISSSGGTTYYADSVKGRFTISRDNAKNTVYLQMNRLKPEDSAVYYCACVYVSLWPSATYWSGFGYWGQGTKVTVSS | low polyreactivity
13 | QVQLVESGGGLVQAGGSLRLSCAASGSIFERNAMGWYRQAPGKERELVAAISDDDGSTYYADSVKGRFTISRDNAKNTVYLQMNSLKPEDTAVYYCNAYSHFGSFYPFDYWGQGTQVTVSS | low polyreactivity
14 | QVQLVESGGGLVQAGGSLRLSCAASGRIFGYNAMGWYRQATGKERELVAGITRNDGSTYYADSVKGRFTISRDNAKNTVYLLMNSLKPEDTAVYYCYRYLHLAGSWGQGTQVTVSS | low polyreactivity
15 | QVQLVESGGGLVQAGGSLRLSCAASGIIFDRYTMGWYRQAPGKERELVAAIDDSDDSTYYADSVKGRFTISRDNAKNTVYLQMNSLKPEDTAVYYCAAEYTWFEYIDFGYWGQGTQVTVSS | high polyreactivity
16 | QVQLVESGGGLVQAGGSLRLSCAASGSNFVYNAMGRNRQAPGKERELVAAISSGGRTNYADSVKGRFTISRDNANNTVYLQMNSLKPEDTAVYYCADEGLLWWSGYYYWGQGTQVTVYS | high polyreactivity
17 | QVHLVESGGGLVQAGGSLRLSCAASGSIFPYNVMGWYTQAPGTERELVAAISTRGGRTYYADSVKGRFTISRDNANNTVYLELNSLKPEDTAVYDCATAGGPYSDYGYYWGQGTQVTVSS | high polyreactivity
18 | QVQLVESGGGLVQAGGSLRLSCAASGSTYGWNAMGWSRQAPGKERELVAAISSSGGITYYADSVKGRFTISRDNAKNTVYLQMNSLKPEDTAVYYCAAERDVDWVNYWGQGTQVTVSS | low polyreactivity
19 | QVQLVESGGGLVQAGGSLRLSCAASGYIFSYYAMGWYRQAPGKERELVAAINRSGGRTYYADSVKGRFTISRDNAKNTVYLQMNSLKPEDTAVYYCNAYSGLSYRYGYYYWGQGTQVTVSS | high polyreactivity
20 | QVQLVESGGGLVQAGGSLRLSCAASGRTFGGNAMGWYRQAPGKERELVAGINISGGSTNYADTVKGRFTISRDNAKNTVYLQMNSLKPEDTAVYYCNADTAVYAWDDDYWGQGTQVTVSS | low polyreactivity
21 | QVQIVESGGGLVQAGGSLRLSCAASGNTFYVNVMGWYRQAPGKEREFVAAISTRGVSTSYADSVKGRFTISRDNAKNTVYLQMNSLKPEDTAVYYCAASFRRPQPKGTTYGYWGQGTQVTVSS | high polyreactivity

Row | Sequence | polyreactivity (PSR sort gate)
22 | QVQLVESVGGLVQAGGSLRLSCAASGIIFSYYAMGWYRQPPGKERELVAVISSGGGSTYYADSVKGRFTISRDNAKNTVYLQMNSLKPDDTAVYYCNADRVDRELFTFDYWGQGTQVTVSS | high polyreactivity
23 | QVQLVESGGGLVQAGGSLRLSCAASGRTFDLYAMGWYRQAHGKERELVAAIRWSSGNTYYADSVKGRFTISRDNAKNTVYLQMNSLKPEDTAVYYCNDELVPFRFEYWGQGTQVTVSS | low polyreactivity
24 | QVQLVESGGGLVQAGGSLRLSCAASGFIIGYYAMGWYRQAPGKERELVASIRRGGSTYYADSVKGRFTISRDNAKNTVYLQMNSLKPEDTAVYYCAVPYSRFSAFRRWVKYDYWGQGTQVTVSS | high polyreactivity
25 | QVQLVESGGGLVQAGGSLRLSCAASGSTFYPYFMGWYREAPGKERELVAAITYRGSTYYADSVKGRFTISRDNAKYTVYLQMNSLKPEDTAVYYCAAAVYAIDYTYYYWGQGTQVTVSS | high polyreactivity
26 | QGQLVESGGGLVQAGGSLRLSCAASGSTFPSYAMGWYRQAPGKERELVAAISRRSSRTYYADSVKGRFTISRDNAKNTVYLQMNSLKPEDTAVYYCNADAGRHSDEYGYDYWGQGTEVTVSS | high polyreactivity
27 | QVQHVESLGGLVQAGGSLRLSCAASGRTFFGYAMGWYRQEPGKERELVAAISSGGRTYFADSVKGRFTMSRDNAKNTVFLQMNSLKPEDTAVYYCAAQYSARYYYWGLGTQVTVSS | high polyreactivity
28 | QVQLVESGGGLVQAGGSLRISCAAYGSIFTRYAMGWYRQAPGKERELVAAINSGGSTKYADSVKGRFTISRDNAKNSVYLQMISLKPEDTAVYYCNAGYWWYGYDYWGQGSQVTVSS | high polyreactivity
29 | QVQLVESGGGLVQAGGSLRLSCAASGIIIRKYAMGWYRQAPGKERELVAAITTRGSRTYYADSVKGRFTISRDNAKNTVYLQMNSLKPEDTAVYYCAADFGYAWWWYDTYGYWGQGTQVTVSS | high polyreactivity
30 | QFQLVESGGGLVQAGASLRLSCAASGSISKSYAMGWYRQAPGKERELVAAISWRGGSTYADSVKGRFTISRDNAKNTVYLQMNCLKPEDTAVYYCAATNYGTFWGGQSERYDYWGQGTQVTVSS | low polyreactivity
31 | QVHLVESGGGLVKAGGSLRLSCAASGSTKNYVMGWYRQAPGKERELVAAISRGSSTYYADSVKGRFTISRDNAKNTVYLQMNSLKPEDTAVYYCAARGPWQAPYDYWGQGTQVTVSS | high polyreactivity
32 | QVQLVESGGGLVQAGGSLRLSCAASGSTFIPYAMGWYRQAPGKERELVAGINGGDGSTYYADSVKGRFTISRDNAKNTVYLQMNSLKPEDTAVYYCAKKNPLVFTSGMDYWGQGTQVTVSS | low polyreactivity
33 | QVQLVESGGGLVQAGGSLRLSCAASGSTFGGNAMGWYRQAPGKERELVAAIDSGGSTYADSVKGRFTISRDNAKNTVYFQMNSLKPEDTAVYYCAAVWEFVHYWRFDYWGQGTQVTVSS | low polyreactivity
34 | QVQLVESGGGLVQAGGSLRLSCAPSGRIFVYYTMGWYRQAPGKERELVAAITGSGGSTYYADSVKGRFTISRDNAKYTVYLQMNSLKPVDTAVYYCAVYDSYRKFKYWGQGTQVTVSS | high polyreactivity
35 | QVQLVESGGGLVQAGGSLRLSCAASVRTFGFNVMGWYRQAPGKERELVAAISWSGGSTYYADSVKGRFTISRDNAKNTVYLQMNSLKPEVTAVYYCNKRYVHRYGYWGQGTQVTVSS | low polyreactivity
36 | QVQLVESGGGLVQAGGSLRLSCAASGRIVGRYAMAWYRQAPGKERELVAAISSGTSTNYADSVKGRFTISRDNAKNTVYLQMNSLKPEDTAVYYCAVVLYRHWWYDYWGKGTQVTVSS | high polyreactivity
37 | QVQLVESGGGLVQAGGSLRLSCAASGRIFRANAMGWYRQAPGKERELVAGITRRGGSTNYADSVKGRFTISRDNAKTTVYLQMNSLKPEDTAVYYCNRDVSLSTSIRMDYWGQGTQVTVSS | low polyreactivity
38 | QVQLVESGGGLVHAGGSLRLSCAASGTISAYAMGWYRPAPGKERELVAAISYSGGSTYYADSVKGRFTISRDNAKKTVYLQMNSLKPEDTAVYYCNARARWYYPYKTYYYWGQGTQVTVSS | high polyreactivity
39 | QVQLVESGGGLVQAGGSLRLSCAASGFIFVLYAMGWYRQAPGKERELVAAITWSTGSTYYADSVKGRFTISRDNAKNTVYLQMNSLKPEDTAVYYCAADQYIFGIWFDYWGQGTQVTVSS | high polyreactivity
40 | QVQLVESGGGLVQAGGSLRLSCAASGRTLVKYAMGRYRPAPGKERELVAALTQRGGITYYADSVKGRFTISRDNAKNTVYLQMNSLKPEDTAVYYCAASLYSYRSPYTFYYWGQGTQVTVSS | high polyreactivity
41 | EEELVESGGGLVQAGGSLRLSCAASGRTFVYNAMGWYRQAPGKERELVATITRGVSTNYADSVKGRFTISRDNAKNTVYLQMNSLKPEDTAVYYFAAVWYYQFGVWGYYWGQGTQVTVSS | low polyreactivity
